The source of these data is PMC10786891, “Massively parallel profiling of RNA-targeting CRISPR-Cas13d”.

To fix the notation:
T1: EsCas13d, nuclease-dead (Eubacterium siraeum, UniProt B0MS50, R295A;H300A;R849A;H854A)
T1 sequence: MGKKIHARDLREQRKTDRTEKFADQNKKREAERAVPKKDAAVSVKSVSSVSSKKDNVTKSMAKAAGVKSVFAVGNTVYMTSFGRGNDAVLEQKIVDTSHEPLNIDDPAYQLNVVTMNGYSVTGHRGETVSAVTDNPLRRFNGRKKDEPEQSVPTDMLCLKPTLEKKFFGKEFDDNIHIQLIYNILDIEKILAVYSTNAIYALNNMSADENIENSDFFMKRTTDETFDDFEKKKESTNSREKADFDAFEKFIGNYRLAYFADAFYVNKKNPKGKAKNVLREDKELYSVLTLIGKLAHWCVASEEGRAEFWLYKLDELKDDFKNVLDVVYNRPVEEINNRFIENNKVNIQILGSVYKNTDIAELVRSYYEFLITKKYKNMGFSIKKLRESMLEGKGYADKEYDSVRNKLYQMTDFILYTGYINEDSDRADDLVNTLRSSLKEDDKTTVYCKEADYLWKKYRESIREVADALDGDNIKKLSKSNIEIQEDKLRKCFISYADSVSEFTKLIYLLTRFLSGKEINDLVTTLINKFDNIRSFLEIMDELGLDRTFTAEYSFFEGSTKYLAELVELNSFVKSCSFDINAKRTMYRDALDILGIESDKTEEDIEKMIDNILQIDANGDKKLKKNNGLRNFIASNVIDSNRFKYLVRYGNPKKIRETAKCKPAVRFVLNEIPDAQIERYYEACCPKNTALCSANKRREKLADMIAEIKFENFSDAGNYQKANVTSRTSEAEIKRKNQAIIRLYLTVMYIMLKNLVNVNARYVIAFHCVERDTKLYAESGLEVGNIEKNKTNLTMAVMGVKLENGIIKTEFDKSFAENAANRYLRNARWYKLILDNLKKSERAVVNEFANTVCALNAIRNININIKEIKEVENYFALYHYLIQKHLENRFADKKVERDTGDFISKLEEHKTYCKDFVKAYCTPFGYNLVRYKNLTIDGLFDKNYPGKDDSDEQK

B1: target 3 insA 3' of 22,insG 3' of 2 (mixed)
RNA 1: CACCCGUGCAAAAUUGCAGGGGUCUAAAACGACCUGAAUAUUUCAGAUCAAA
RNA 2: GGGAAUGGAUCCACAUCUACGAAUUCGUUUAUUGAUCUGAAAUAUUCAGGUGCUGCAGAUCGGAAGAGCACACGU
B2: target 3 A13G (mixed)
RNA 1: CACCCGUGCAAAAUUGCAGGGGUCUAAAACGACCUGAAUAUUUCAGAUCAAA
RNA 2: GGGAAUGGAUCCACAUCUACGAAUUCGUUUUUGAUCUGGAAUAUUCAGGUCUGCAGAUCGGAAGAGCACACGU
B3: target 3 insA 3' of 10,insA 3' of 8 (mixed)
RNA 1: CACCCGUGCAAAAUUGCAGGGGUCUAAAACGACCUGAAUAUUUCAGAUCAAA
RNA 2: GGGAAUGGAUCCACAUCUACGAAUUCGUUUUUGAUCUGAAAUAAUAUCAGGUCUGCAGAUCGGAAGAGCACACGU
B4: target 3 insC 3' of 22,insC 3' of 5 (mixed)
RNA 1: CACCCGUGCAAAAUUGCAGGGGUCUAAAACGACCUGAAUAUUUCAGAUCAAA
RNA 2: GGGAAUGGAUCCACAUCUACGAAUUCGUUUCUUGAUCUGAAAUAUUCACGGUCUGCAGAUCGGAAGAGCACACGU
B5: target 3 insC 3' of 21,insU 3' of 4 (mixed)
RNA 1: CACCCGUGCAAAAUUGCAGGGGUCUAAAACGACCUGAAUAUUUCAGAUCAAA
RNA 2: GGGAAUGGAUCCACAUCUACGAAUUCGUUUUCUGAUCUGAAAUAUUCAGUGUCUGCAGAUCGGAAGAGCACACGU
B6: target 3 insC 3' of 11,insU 3' of 3 (mixed)
RNA 1: CACCCGUGCAAAAUUGCAGGGGUCUAAAACGACCUGAAUAUUUCAGAUCAAA
RNA 2: GGGAAUGGAUCCACAUCUACGAAUUCGUUUUUGAUCUGAAACUAUUCAGGUUCUGCAGAUCGGAAGAGCACACGU
B7: target 3 U2G (mixed)
RNA 1: CACCCGUGCAAAAUUGCAGGGGUCUAAAACGACCUGAAUAUUUCAGAUCAAA
RNA 2: GGGAAUGGAUCCACAUCUACGAAUUCGUUUUUGAUCUGAAAUAUUCAGGGCUGCAGAUCGGAAGAGCACACGU
B8: target 3 insU 3' of 13,insU 3' of 3 (mixed)
RNA 1: CACCCGUGCAAAAUUGCAGGGGUCUAAAACGACCUGAAUAUUUCAGAUCAAA
RNA 2: GGGAAUGGAUCCACAUCUACGAAUUCGUUUUUGAUCUGAUAAUAUUCAGGUUCUGCAGAUCGGAAGAGCACACGU
B9: target 3 insG 3' of 8,insU 3' of 3 (mixed)
RNA 1: CACCCGUGCAAAAUUGCAGGGGUCUAAAACGACCUGAAUAUUUCAGAUCAAA
RNA 2: GGGAAUGGAUCCACAUCUACGAAUUCGUUUUUGAUCUGAAAUAUGUCAGGUUCUGCAGAUCGGAAGAGCACACGU
B10: target 3 insG 3' of 7,insU 3' of 5 (mixed)
RNA 1: CACCCGUGCAAAAUUGCAGGGGUCUAAAACGACCUGAAUAUUUCAGAUCAAA
RNA 2: GGGAAUGGAUCCACAUCUACGAAUUCGUUUUUGAUCUGAAAUAUUGCAUGGUCUGCAGAUCGGAAGAGCACACGU
B11: target 3 G4A,A5U (mixed)
RNA 1: CACCCGUGCAAAAUUGCAGGGGUCUAAAACGACCUGAAUAUUUCAGAUCAAA
RNA 2: GGGAAUGGAUCCACAUCUACGAAUUCGUUUUUGAUCUGAAAUAUUCUAGUCUGCAGAUCGGAAGAGCACACGU
B12: target 3 C6U,U7G (mixed)
RNA 1: CACCCGUGCAAAAUUGCAGGGGUCUAAAACGACCUGAAUAUUUCAGAUCAAA
RNA 2: GGGAAUGGAUCCACAUCUACGAAUUCGUUUUUGAUCUGAAAUAUGUAGGUCUGCAGAUCGGAAGAGCACACGU
B13: target 3 insU 3' of 3,insU 3' of 3 (mixed)
RNA 1: CACCCGUGCAAAAUUGCAGGGGUCUAAAACGACCUGAAUAUUUCAGAUCAAA
RNA 2: GGGAAUGGAUCCACAUCUACGAAUUCGUUUUUGAUCUGAAAUAUUCAGGUUUCUGCAGAUCGGAAGAGCACACGU
B14: target 3 U21A,U22C (mixed)
RNA 1: CACCCGUGCAAAAUUGCAGGGGUCUAAAACGACCUGAAUAUUUCAGAUCAAA
RNA 2: GGGAAUGGAUCCACAUCUACGAAUUCGUUCAUGAUCUGAAAUAUUCAGGUCUGCAGAUCGGAAGAGCACACGU
B15: target 3 U2G,A9U (mixed)
RNA 1: CACCCGUGCAAAAUUGCAGGGGUCUAAAACGACCUGAAUAUUUCAGAUCAAA
RNA 2: GGGAAUGGAUCCACAUCUACGAAUUCGUUUUUGAUCUGAAAUUUUCAGGGCUGCAGAUCGGAAGAGCACACGU
B16: target 3 G4U,A9G (mixed)
RNA 1: CACCCGUGCAAAAUUGCAGGGGUCUAAAACGACCUGAAUAUUUCAGAUCAAA
RNA 2: GGGAAUGGAUCCACAUCUACGAAUUCGUUUUUGAUCUGAAAUGUUCAUGUCUGCAGAUCGGAAGAGCACACGU
B17: target 3 A5G,U22C (mixed)
RNA 1: CACCCGUGCAAAAUUGCAGGGGUCUAAAACGACCUGAAUAUUUCAGAUCAAA
RNA 2: GGGAAUGGAUCCACAUCUACGAAUUCGUUCUUGAUCUGAAAUAUUCGGGUCUGCAGAUCGGAAGAGCACACGU
B18: target 3 insU 3' of 3 (mixed)
RNA 1: CACCCGUGCAAAAUUGCAGGGGUCUAAAACGACCUGAAUAUUUCAGAUCAAA
RNA 2: GGGAAUGGAUCCACAUCUACGAAUUCGUUUUUGAUCUGAAAUAUUCAGGUUCUGCAGAUCGGAAGAGCACACGU
B19: target 3 insG 3' of 9,insA 3' of 6 (mixed)
RNA 1: CACCCGUGCAAAAUUGCAGGGGUCUAAAACGACCUGAAUAUUUCAGAUCAAA
RNA 2: GGGAAUGGAUCCACAUCUACGAAUUCGUUUUUGAUCUGAAAUAGUUCAAGGUCUGCAGAUCGGAAGAGCACACGU
B20: target 3 insU 3' of 11,insG 3' of 2 (mixed)
RNA 1: CACCCGUGCAAAAUUGCAGGGGUCUAAAACGACCUGAAUAUUUCAGAUCAAA
RNA 2: GGGAAUGGAUCCACAUCUACGAAUUCGUUUUUGAUCUGAAAUUAUUCAGGUGCUGCAGAUCGGAAGAGCACACGU
B21: target 3 A5G,C6A (mixed)
RNA 1: CACCCGUGCAAAAUUGCAGGGGUCUAAAACGACCUGAAUAUUUCAGAUCAAA
RNA 2: GGGAAUGGAUCCACAUCUACGAAUUCGUUUUUGAUCUGAAAUAUUAGGGUCUGCAGAUCGGAAGAGCACACGU
B22: target 3 insG 3' of 22,insG 3' of 2 (mixed)
RNA 1: CACCCGUGCAAAAUUGCAGGGGUCUAAAACGACCUGAAUAUUUCAGAUCAAA
RNA 2: GGGAAUGGAUCCACAUCUACGAAUUCGUUUGUUGAUCUGAAAUAUUCAGGUGCUGCAGAUCGGAAGAGCACACGU
B23: target 3 U2C,G4U (mixed)
RNA 1: CACCCGUGCAAAAUUGCAGGGGUCUAAAACGACCUGAAUAUUUCAGAUCAAA
RNA 2: GGGAAUGGAUCCACAUCUACGAAUUCGUUUUUGAUCUGAAAUAUUCAUGCCUGCAGAUCGGAAGAGCACACGU
B24: target 3 C6U,U8A (mixed)
RNA 1: CACCCGUGCAAAAUUGCAGGGGUCUAAAACGACCUGAAUAUUUCAGAUCAAA
RNA 2: GGGAAUGGAUCCACAUCUACGAAUUCGUUUUUGAUCUGAAAUAAUUAGGUCUGCAGAUCGGAAGAGCACACGU
B25: target 1 insG 3' of 3,insA 3' of 2 (mixed)
RNA 1: CACCCGUGCAAAAAUGCAGGGGUCUAAAACUGAGCGGAUAACCUCUCUAUGG
RNA 2: GGGAAUGGAUCCACAUCUACGAAUUCGUACCAUAGAGAGGUUAUCCGCUGCAACCGAGAUCGGAAGAGCACACGU
B26: target 1 C2U,C4U (mixed)
RNA 1: CACCCGUGCAAAAAUGCAGGGGUCUAAAACUGAGCGGAUAACCUCUCUAUGG
RNA 2: GGGAAUGGAUCCACAUCUACGAAUUCGUACCAUAGAGAGGUUAUCCGUUUACCGAGAUCGGAAGAGCACACGU
B27: target 1 insC 3' of 9,insU 3' of 6 (mixed)
RNA 1: CACCCGUGCAAAAAUGCAGGGGUCUAAAACUGAGCGGAUAACCUCUCUAUGG
RNA 2: GGGAAUGGAUCCACAUCUACGAAUUCGUACCAUAGAGAGGUUACUCCUGCUCACCGAGAUCGGAAGAGCACACGU

In the data set the target is T1, EsCas13d, nuclease-dead. The experiment in a line: crRNA (strand 1, pre-loaded); Mg2+; 40 mM Tris-HCl pH 7.5, 150 mM NaCl, 6 mM MgCl2, 1 mM DTT, 0.1% Tween-20, 0.2 mg/ml BSA; 25 C; 10 min per concentration, then washed. As to conditions: tags: His6-TwinStrep-SUMO cleaved; N-terminal SNAP kept (SNAP-Surface 488); label: 3' end held by stalled T7 RNA polymerase.
As for B1, binding was characterised by a dissociation constant (Kd) of 32.9 ± 4.15 nM. The value for B2 was 69 ± 20 nM; that for B3 was 110 ± 28 nM.

On to B4, for which binding was put at a Kd of 32 ± 4.5 nM.

Regarding B5, the Kd was roughly 68.5 nM. The value for B6 was 74.5 ± 33.5 nM; that for B7 was 26.5 ± 2.7 nM; that for B8 was 64.5 ± 20 nM. In the case of B9 it was 85.5 ± 29.5 nM; in that of B10, 19.9 ± 2.2 nM. For the molecule B11, the Kd was determined as 19.3 ± 2.25 nM. The value for B12 was 39 ± 6 nM; that for B13 was 81 ± 20 nM. In the case of B14 it was 37.3 ± 5.65 nM. In the case of B15 it was 123 ± 29 nM; in that of B16, 37.5 ± 4 nM. On to B17, for which binding was put at a Kd of 23.4 ± 3.5 nM. The value for B18 was 29.2 ± 3.4 nM; that for B19 was 90.5 ± 16 nM.

For B20, the equilibrium dissociation constant (Kd) is 42.5 ± 6 nM.

On to B21, for which the affinity, expressed as Kd, was 34.1 ± 3.35 nM. The value for B22 was 61 ± 23 nM. The molecule B23 showed an equilibrium dissociation constant (Kd) of 23 ± 5 nM. As for B24, the Kd was found to be 50.8 ± 4.85 nM. In the case of B25 it was 6.5 ± 0.4 nM. Regarding B26, binding was put at a Kd of 58 ± 17 nM. B27 registered a Kd of 16.6 ± 0.9 nM.
